These results are taken from article PMC10144703, “Molecular Mechanism of Sirtuin 1 Inhibition by Human Immunodeficiency Virus 1 Tat Protein” (Life, 2023).

This assay deals with T1, human full-length Sirt1 (fl-Sirt1) (Homo sapiens, UniProt Q96EB6).
T1 construct: human full-length Sirt1 (fl-Sirt1) in pET-15b; made in house; host or cells: E. coli CodonPlus(DE3)
T1 sequence (Q96EB6 1-747): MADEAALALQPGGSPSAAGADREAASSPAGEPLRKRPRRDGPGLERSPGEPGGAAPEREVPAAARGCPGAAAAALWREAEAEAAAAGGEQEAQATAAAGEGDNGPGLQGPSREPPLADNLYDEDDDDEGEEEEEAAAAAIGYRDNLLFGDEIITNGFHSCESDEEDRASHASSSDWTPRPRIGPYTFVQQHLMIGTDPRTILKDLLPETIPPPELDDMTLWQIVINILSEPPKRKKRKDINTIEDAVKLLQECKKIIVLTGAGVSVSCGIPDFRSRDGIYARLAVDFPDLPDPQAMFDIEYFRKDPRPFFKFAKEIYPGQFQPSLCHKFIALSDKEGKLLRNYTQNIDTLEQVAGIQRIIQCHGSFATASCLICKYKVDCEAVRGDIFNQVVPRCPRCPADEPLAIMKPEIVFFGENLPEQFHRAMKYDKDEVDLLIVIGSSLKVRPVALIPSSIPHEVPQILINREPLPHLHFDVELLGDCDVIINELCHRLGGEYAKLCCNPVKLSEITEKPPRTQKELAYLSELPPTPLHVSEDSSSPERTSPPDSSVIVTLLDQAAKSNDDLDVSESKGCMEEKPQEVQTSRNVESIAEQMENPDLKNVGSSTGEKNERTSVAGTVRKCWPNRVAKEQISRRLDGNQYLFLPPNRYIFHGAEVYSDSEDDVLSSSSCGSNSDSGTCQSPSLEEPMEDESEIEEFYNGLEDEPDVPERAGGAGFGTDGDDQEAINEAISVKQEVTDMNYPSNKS
Put plainly: FdL deacetylation assay, fl-Sirt1. In kind it is biochemical. The settings on record: FdL assay, 100 µM FdL-1, 500 µM NAD^+, pH 7.8, 37 °C; n = 2; read-out: IC50, fl-Sirt1, truncated Tat-Cys^− constructs. An excerpt:
A human mini-Sirt1 construct (aa 183-505-(GGGS)2-641-665), as described in [27], was generated in a modified pET-19b with a TEV cleavage site. This construct and human full-length Sirt1 (fl-Sirt1) in pET-15b, Sirt1-(183-664) and Sirt1-(214-664) in pET-15b, mini-Sirt1-∆SBD (aa 214-505-(GGGS)2-641-665) and mini-Sirt1-∆ESA (aa 183–505) in a modified pET-19b with TEV cleavage site, Sirt2-(43-356) in a modified pET-19b with a His6-Sumo tag, Sirt3-(93-399) in a modified pET-32a with Trx-His6 tag and TEV cleavage site, hSirt3-(118-399) in pVFT3S (Sungkyunkwan University, Seoul, Republic of Korea) with His6-Trx tag and TEV cleavage site, Sirt5-(34-302) in pET-151/D-TOPO, and Sirt6-(1-355) in pQE80L.1 were purified as described. Shortly, proteins were expressed at 20 °C (mini-Sirt1 constructs at 16 °C) in E. coli CodonPlus(DE3), cell lysates were cleared by centrifugation, and proteins were purified via affinity chromatography using a nickel NTA column. After digestion with thrombin or TEV protease, proteins were re-run over the nickel NTA column, pooled, and concentrated. The samples were, then, subjected either directly to size exclusion chromatography in 50 mM Tris/HCl, pH 8.0, 150 mM NaCl, 1 mM TCEP, or to an ion exchange chromatography followed by size exclusion chromatography. […]

B1: Tat-Cys^− residues 1–63: C-terminally shortened Tat-Cys^− construct, residues 1–63 (protein)
chain: MDPVDPNIEPWNHPGSQPKTASNRAHAKKSAYHSQVAFITKGLGISYGRKKRRQRRRPSQGGQ
One may read the IC50 as the concentration that inhibits the measured activity by half. For B1, the half-maximal inhibitory concentration (IC50) is approximately 10 µM.
